Results on 19 molecules are retold here after ChEMBL document CHEMBL4828702, “Identification of Novel High-Affinity Substrates of OCT1 Using Machine Learning-Guided Virtual Screening and Experimental Validation” (J Med Chem, 2021).

The target of data set [1] is Solute carrier family 22 member 1 (Homo sapiens) (UniProt O15245). In words: Substrate activity at human OCT1 expressed in HEK293 cells assessed as increase in compound uptake by measuring intrinsic clearance incubated for 2 mins by LC-MS/MS analysis.
The next data set concerns OCT1. Nature of the data set: Ratio of drug uptake in human OCT1 expressing HEK293 cells at 2.5 uM to drug uptake in empty vector transfected human HEK293 cells at 2.5 uM. It is filed as ADME, cell-based.
Substrate in data set [2]: N=C(N)NC(=O)Cc1c(Cl)cccc1Cl
In words: (§1) Substrate activity at human OCT1 expressed in HEK293 cells assessed as increase in compound uptake by measuring Km incubated for 2 mins by LC-MS/MS analysis. It counts as cell-based.

Substrate in data set [3]: NCC(O)c1cccc(O)c1
Described as §1. It counts as cell-based.

Substrate in data set [4]: CC[N+](CC)(CC(=O)Nc1c(C)cccc1C)Cc1ccccc1
Described as §1. It counts as cell-based.

Substrate in data set [5]: NCC(O)c1ccc(O)cc1
Described as §1. It is filed as cell-based.

Substrate in data set [6]: N=C(N)NCc1cccc(I)c1
Described as §1. It is filed as cell-based.

Substrate in data set [7]: CN[C@@H]1CCc2[nH]c3ccc(C(N)=O)cc3c2C1
The description is as §1. It is filed as cell-based.

Substrate in data set [8]: CCN(CC)C(=O)C1(c2ccccc2)CC1CN
Described as §1. It is filed as cell-based.

Substrate in data set [9]: Nc1ccncc1N
The data set is described as §1. It is filed as cell-based.

Substrate in data set [10]: CC(NCCc1ccc(O)cc1)C(O)c1ccc(O)cc1
The description is as §1. It counts as cell-based.

Substrate in data set [11]: CC(C)NC[C@H](O)COc1ccc(O)cc1
The data set is described as §1. It counts as cell-based.

Substrate in data set [12]: CC(CCc1ccc(O)cc1)NCCc1ccc(O)c(O)c1
Described as §1. It is filed as cell-based.

Substrate in data set [13]: CCN(CC)CCNC(=O)c1ccc(NS(C)(=O)=O)cc1
The data set is described as §1. It is filed as cell-based.

Substrate in data set [14]: C[N+]1(C)CCN(c2ccccc2)CC1
The description is as §1. It is filed as cell-based.

Substrate in data set [15]: C[N+]1(CCC(C(N)=O)(c2ccccc2)c2ccccc2)CCCCC1
The data set is described as §1. It counts as cell-based.

Substrate in data set [16]: CC(CCc1ccc(O)cc1)NCC(O)c1ccc(O)cc1
The data set is described as §1. It is filed as cell-based.

Substrate in data set [17]: CNC[C@H](O)c1cccc(O)c1
The description is as §1. It is filed as cell-based.

Substrate in data set [18]: CC(C)NCC(O)c1ccc(NS(C)(=O)=O)cc1
Described as §1. It counts as cell-based.

Substrate in data set [19]: C[N+]1(C)[C@@H]2C[C@H](OC(=O)[C@H](CO)c3ccccc3)C[C@H]1[C@@H]1O[C@@H]12
The data set is described as §1. It counts as cell-based.

Substrate in data set [20]: CC[N+](C)(C)c1cccc(O)c1
The data set is described as §1. It is filed as cell-based.

Substrate in data set [21]: CC[N+](CC)(CC)Cc1ccccc1
The data set is described as §1. It counts as cell-based.

Substrate in data set [22]: NC(N)=Nc1nc(CSCC/C(N)=N/S(N)(=O)=O)cs1
The description is as §1. It counts as cell-based.

Substrate in data set [23]: N=C(N)NC(=O)Cc1c(Cl)cccc1Cl
Nature of the data set: (§2) Substrate activity at human OCT1 expressed in HEK293 cells assessed as increase in compound uptake by measuring Vmax incubated for 2 mins by LC-MS/MS analysis. It counts as cell-based.

Substrate in data set [24]: NCC(O)c1cccc(O)c1
The description is as §2. It is filed as cell-based.

Substrate in data set [25]: CC[N+](CC)(CC(=O)Nc1c(C)cccc1C)Cc1ccccc1
Described as §2. It is filed as cell-based.

Substrate in data set [26]: NCC(O)c1ccc(O)cc1
The description is as §2. It counts as cell-based.

Substrate in data set [27]: N=C(N)NCc1cccc(I)c1
Described as §2. It counts as cell-based.

Substrate in data set [28]: CN[C@@H]1CCc2[nH]c3ccc(C(N)=O)cc3c2C1
The data set is described as §2. It is filed as cell-based.

Substrate in data set [29]: CCN(CC)C(=O)C1(c2ccccc2)CC1CN
Described as §2. It counts as cell-based.

Substrate in data set [30]: Nc1ccncc1N
The description is as §2. It is filed as cell-based.

Substrate in data set [31]: CC(NCCc1ccc(O)cc1)C(O)c1ccc(O)cc1
Described as §2. It is filed as cell-based.

Substrate in data set [32]: CC(C)NC[C@H](O)COc1ccc(O)cc1
The description is as §2. It is filed as cell-based.

Substrate in data set [33]: CC(CCc1ccc(O)cc1)NCCc1ccc(O)c(O)c1
The description is as §2. It counts as cell-based.

Substrate in data set [34]: CCN(CC)CCNC(=O)c1ccc(NS(C)(=O)=O)cc1
The description is as §2. It counts as cell-based.

Substrate in data set [35]: C[N+]1(C)CCN(c2ccccc2)CC1
Described as §2. It counts as cell-based.

Substrate in data set [36]: C[N+]1(CCC(C(N)=O)(c2ccccc2)c2ccccc2)CCCCC1
The description is as §2. It counts as cell-based.

Substrate in data set [37]: CC(CCc1ccc(O)cc1)NCC(O)c1ccc(O)cc1
The data set is described as §2. It counts as cell-based.

Substrate in data set [38]: CNC[C@H](O)c1cccc(O)c1
The description is as §2. It is filed as cell-based.

Substrate in data set [39]: CC(C)NCC(O)c1ccc(NS(C)(=O)=O)cc1
Described as §2. It counts as cell-based.

Substrate in data set [40]: C[N+]1(C)[C@@H]2C[C@H](OC(=O)[C@H](CO)c3ccccc3)C[C@H]1[C@@H]1O[C@@H]12
Described as §2. It counts as cell-based.

Substrate in data set [41]: CC[N+](C)(C)c1cccc(O)c1
Described as §2. It is filed as cell-based.

Substrate in data set [42]: CC[N+](CC)(CC)Cc1ccccc1
Described as §2. It is filed as cell-based.

Substrate in data set [43]: NC(N)=Nc1nc(CSCC/C(N)=N/S(N)(=O)=O)cs1
The data set is described as §2. It is filed as cell-based.

Chain of Solute carrier family 22 member 1 (Homo sapiens) (O15245 whole entry, looked up): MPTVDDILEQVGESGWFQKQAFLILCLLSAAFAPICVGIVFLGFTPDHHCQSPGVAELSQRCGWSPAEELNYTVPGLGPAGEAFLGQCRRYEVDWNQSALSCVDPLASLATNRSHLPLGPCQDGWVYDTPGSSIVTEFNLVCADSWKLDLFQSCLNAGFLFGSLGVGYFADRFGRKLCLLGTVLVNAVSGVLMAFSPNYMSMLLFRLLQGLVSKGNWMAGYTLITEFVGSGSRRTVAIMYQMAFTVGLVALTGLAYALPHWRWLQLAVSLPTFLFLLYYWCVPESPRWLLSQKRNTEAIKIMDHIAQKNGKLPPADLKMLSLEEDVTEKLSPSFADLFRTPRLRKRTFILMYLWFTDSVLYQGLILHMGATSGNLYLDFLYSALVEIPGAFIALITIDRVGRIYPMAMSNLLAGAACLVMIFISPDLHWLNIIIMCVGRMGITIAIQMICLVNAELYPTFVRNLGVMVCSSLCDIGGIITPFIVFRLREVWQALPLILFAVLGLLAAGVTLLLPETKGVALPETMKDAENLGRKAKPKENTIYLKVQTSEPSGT

`CCN(CC)CCNC(=O)c1ccc(NS(C)(=O)=O)cc1` [SEMATILIDE]: in data set [1], the clearance is 3.3 mL/min/g. Besides, the uptake ratio at 2.5 µM in the data set with OCT1 came to 3.5.

As for `CC(C)NC[C@H](O)COc1ccc(O)cc1` [PRENALTEROL], the clearance in [1] is 12.4 mL/min/g. Also, the uptake ratio at 2.5 µM in the data set with OCT1 was 5.3.

With `C[N+]1(CCC(C(N)=O)(c2ccccc2)c2ccccc2)CCCCC1`, the clearance in [1] was 114 mL/min/g. In the data set on OCT1, the uptake ratio at 2.5 µM came to 30.9.

For `NCC(O)c1cccc(O)c1` (stereo unspecified) [NORFENEFRINE], in data set [1], the clearance amounted to 4.6 mL/min/g. For the same molecule, in the data set with OCT1, the uptake ratio at 2.5 µM came to 2.1.

`CC(NCCc1ccc(O)cc1)C(O)c1ccc(O)cc1` (stereo unspecified) [RITODRINE]: the clearance in data set [1] stood at 104 mL/min/g. Besides, the uptake ratio at 2.5 µM with OCT1 is 7.6.

As for `N=C(N)NC(=O)Cc1c(Cl)cccc1Cl` [GUANFACINE], the clearance in data set [1] came to 138 mL/min/g. For the same molecule, in the data set with OCT1, the uptake ratio at 2.5 µM came to 4.3.

Consider `N=C(N)NCc1cccc(I)c1` [IOBENGUANE], for which the clearance in data set [1] amounted to 3160 mL/min/g. Further, the uptake ratio at 2.5 µM in the data set on OCT1 turned out to be 10.1.

With `CC[N+](C)(C)c1cccc(O)c1` [EDROPHONIUM], the clearance in data set [1] came out at 99.5 mL/min/g. The uptake ratio at 2.5 µM in the data set with OCT1 turned out to be 42.6.

As for `CC[N+](CC)(CC(=O)Nc1c(C)cccc1C)Cc1ccccc1` [DENATONIUM], in [1], the clearance stood at 71.4 mL/min/g. In the data set with OCT1, the uptake ratio at 2.5 µM amounted to 21.6.

Turning to `CC(CCc1ccc(O)cc1)NCC(O)c1ccc(O)cc1` (stereo unspecified) [RACTOPAMINE], in data set [1], the clearance came to 111 mL/min/g. For the same molecule, the uptake ratio at 2.5 µM in the data set on OCT1 was found to be 7.1.

Turning to `CC[N+](CC)(CC)Cc1ccccc1`, the clearance in [1] was found to be 62.8 mL/min/g. Besides, the uptake ratio at 2.5 µM in the data set with OCT1 was determined as 67.5.

Take `NCC(O)c1ccc(O)cc1` (stereo unspecified): in data set [1], the clearance is 9.1 mL/min/g.

In the case of `CN[C@@H]1CCc2[nH]c3ccc(C(N)=O)cc3c2C1` [FROVATRIPTAN], the clearance in [1] came to 50.3 mL/min/g. For the same molecule, the uptake ratio at 2.5 µM in the data set with OCT1 was 33.1.

Regarding `CNC[C@H](O)c1cccc(O)c1` [PHENYLEPHRINE], the clearance in data set [1] came out at 17.3 mL/min/g. Besides, the uptake ratio at 2.5 µM in the data set on OCT1 is 10.6.

As for `CC(CCc1ccc(O)cc1)NCCc1ccc(O)c(O)c1` (stereo unspecified) [DOBUTAMINE], the clearance in data set [1] was found to be 5.2 mL/min/g. Further, the uptake ratio at 2.5 µM in the data set with OCT1 was 14.7.

Take `Nc1ccncc1N` [AMIFAMPRIDINE]: the clearance in [1] is 18.8 mL/min/g. The uptake ratio at 2.5 µM in the data set on OCT1 was found to be 6.8.

On to `C[N+]1(C)CCN(c2ccccc2)CC1` [DIMETHYLPHENYLPIPERAZINIUM], for which, in [1], the clearance amounted to 47.2 mL/min/g. Further, in the data set on OCT1, the uptake ratio at 2.5 µM was found to be 38.9.

As to `NC(N)=Nc1nc(CSCC/C(N)=N/S(N)(=O)=O)cs1`, the clearance in data set [1] came out at 87.4 mL/min/g.

B1: POU domain, class 2, transcription factor 1 (Homo sapiens), P14859 (protein)
chain: MNNPSETSKPSMESGDGNTGTQTNGLDFQKQPVPVGGAISTAQAQAFLGHLHQVQLAGTSLQAAAQSLNVQSKSNEESGDSQQPSQPSQQPSVQAAIPQTQLMLAGGQITGLTLTPAQQQLLLQQAQAQAQLLAAAVQQHSASQQHSAAGATISASAATPMTQIPLSQPIQIAQDLQQLQQLQQQNLNLQQFVLVHPTTNLQPAQFIISQTPQGQQGLLQAQNLLTQLPQQSQANLLQSQPSITLTSQPATPTRTIAATPIQTLPQSQSTPKRIDTPSLEEPSDLEELEQFAKTFKQRRIKLGFTQGDVGLAMGKLYGNDFSQTTISRFEALNLSFKNMCKLKPLLEKWLNDAENLSSDSSLSSPSALNSPGIEGLSRRRKKRTSIETNIRVALEKSFLENQKPTSEEITMIADQLNMEKEVIRVWFCNRRQKEKRINPPSSGGTSSSPIKAIFPSPTSLVATTPSLVTSSAATTLTVSPVLPLTSAAVTNLSVTGTSDTTSNNTATVISTAPPASSAVTSPSLSPSPSASASTSEASSASETSTTQTTSTPLSSPLGTSQVMVTASGLQTAAAAALQGAAQLPANASLAAMAAAAGLNPSLMAPSQFAAGGALLSLNPGTLSGALSPALMSNSTLATIQALASGGSLPITSLDATGNLVFANAGGAPNIVTAPLFLNPQNLSLLTSNPVSLVSAAAASAGNSAPVASLHATSTSAESIQNSLFTVASASGAASTTTTASKAQ
For the molecule B1, the Km was found to be 8.6 µM in data set [2]; 994 µM in [3]; 12.6 µM in [4]; 389 µM in data set [5]; 15.9 µM in data set [6]; 61.9 µM in data set [7]. Moreover, the Km in data set [8] was found to be 2.26 µM; in data set [9] it was 508 µM; in data set [10], 1.67 µM; in data set [11], 13.3 µM; in [12], 28.4 µM; in [13], 102 µM. For the same molecule, the Km in data set [14] stood at 62 µM; in data set [15] it was 8.6 µM; in data set [16], 2.1 µM; in data set [17], 221 µM; in [18], 196 µM; in [19], 23.4 µM. The results for the Km in data set [20], in data set [21] and in [22] were 26.4 µM, 38.6 µM and 35.7 µM, respectively. Further, the Vmax came to 1180 pmol/mg/min in data set [23]; 4550 pmol/mg/min in data set [24]; 902 pmol/mg/min in data set [25]; 3540 pmol/mg/min in [26]; 5030 pmol/mg/min in data set [27]; 3110 pmol/mg/min in data set [28]. Further, the Vmax in data set [29] came to 340 pmol/mg/min; in [30], 9570 pmol/mg/min; in [31], 173 pmol/mg/min; in data set [32], 165 pmol/mg/min; in data set [33], 147 pmol/mg/min; in data set [34], 338 pmol/mg/min. Further, the Vmax in data set [35] was 2930 pmol/mg/min; in [36] it was 971 pmol/mg/min; in data set [37], 234 pmol/mg/min; in data set [38], 3820 pmol/mg/min; in data set [39], 2760 pmol/mg/min; in data set [40], 1210 pmol/mg/min. Also, the values for the Vmax in [41], in [42] and in data set [43] were 2630 pmol/mg/min, 2420 pmol/mg/min and 3120 pmol/mg/min, respectively.
